# In article PMC8298264, “Function of cofactor Akirin2 in the regulation of gene expression in model human neutrophil-like HL60 cells” (Bioscience Reports, 2021):
# B1: sp¦O14745¦NHRF1_HUMAN (protein, UniProt O14745 2-358, looked up)
# Na(+)/H(+) exchange …: SADAAAGAPLPRLCCLEKGPNGYGFHLHGEKGKLGQYIRLVEPGSPAEKAGLLAGDRLVEVNGENVEKETHQQVVSRIRAALNAVRLLVVDPETDEQLQKLGVQVREELLRAQEAPGQAEPPAAAEVQGAGNENEPREADKSHPEQRELRPRLCTMKKGPSGYGFNLHSDKSKPGQFIRSVDPDSPAEASGLRAQDRIVEVNGVCMEGKQHGDVVSAIRAGGDETKLLVVDRETDEFFKKCRVIPSQEHLNGPLPVPFTNGEIQKENSREALAEAALESPRPALVRSASSDTSEELNSQDSPPKQDSTAPSSTSSSDPILDFNISLAMAKERAHQKRSSKRAPQMDWSKKNELFSNL
# B2: sp¦Q99614¦TTC1_HUMAN (protein, UniProt Q99614 1-292, looked up)
# Tetratricopeptide repeat …: MGEKSENCGVPEDLLNGLKVTDTQEAECAGPPVPDPKNQHSQSKLLRDDEAHLQEDQGEEECFHDCSASFEEEPGADKVENKSNEDVNSSELDEEYLIELEKNMSDEEKQKRREESTRLKEEGNEQFKKGDYIEAESSYSRALEMCPSCFQKERSILFSNRAAARMKQDKKEMAINDCSKAIQLNPSYIRAILRRAELYEKTDKLDEALEDYKSILEKDPSIHQAREACMRLPKQIEERNERLKEEMLGKLKDLGNLVLRPFGLSTENFQIKQDSSTGSYSINFVQNPNNNR
# B3: sp¦O00273¦DFFA_HUMAN (protein, UniProt O00273 1-331, looked up)
# DNA fragmentation factor …: MEVTGDAGVPESGEIRTLKPCLLRRNYSREQHGVAASCLEDLRSKACDILAIDKSLTPVTLVLAEDGTIVDDDDYFLCLPSNTKFVALASNEKWAYNNSDGGTAWISQESFDVDETDSGAGLKWKNVARQLKEDLSSIILLSEEDLQMLVDAPCSDLAQELRQSCATVQRLQHTLQQVLDQREEVRQSKQLLQLYLQALEKEGSLLSKQEESKAAFGEEVDAVDTGISRETSSDVALASHILTALREKQAPELSLSSQDLELVTKEDPKALAVALNWDIKKTETVQEACERELALRLQQTQSLHSLRSISASKASPPGDLQNPKRARQDPT
# B4: sp¦Q8NC51¦PAIRB_HUMAN (protein, UniProt Q8NC51 2-408, looked up)
# SERPINE1 mRNA-binding protein …: PGHLQEGFGCVVTNRFDQLFDDESDPFEVLKAAENKKKEAGGGGVGGPGAKSAAQAAAQTNSNAAGKQLRKESQKDRKNPLPPSVGVVDKKEETQPPVALKKEGIRRVGRRPDQQLQGEGKIIDRRPERRPPRERRFEKPLEEKGEGGEFSVDRPIIDRPIRGRGGLGRGRGGRGRGMGRGDGFDSRGKREFDRHSGSDRSSFSHYSGLKHEDKRGGSGSHNWGTVKDELTESPKYIQKQISYNYSDLDQSNVTEETPEGEEHHPVADTENKENEVEEVKEEGPKEMTLDEWKAIQNKDRAKVEFNIRKPNEGADGQWKKGFVLHKSKSEEAHAEDSVMDHHFRKPANDITSQLEINFGDLGRPGRGGRGGRGGRGRGGRPNRGSRTDKSSASAPDVDDPEAFPALA
# B5: sp¦Q9Y3F4¦STRAP_HUMAN (protein, UniProt Q9Y3F4 1-350, looked up)
# Serine-threonine kinase …: MAMRQTPLTCSGHTRPVVDLAFSGITPYGYFLISACKDGKPMLRQGDTGDWIGTFLGHKGAVWGATLNKDATKAATAAADFTAKVWDAVSGDELMTLAHKHIVKTVDFTQDSNYLLTGGQDKLLRIYDLNKPEAEPKEISGHTSGIKKALWCSEDKQILSADDKTVRLWDHATMTEVKSLNFNMSVSSMEYIPEGEILVITYGRSIAFHSAVSLDPIKSFEAPATINSASLHPEKEFLVAGGEDFKLYKYDYNSGEELESYKGHFGPIHCVRFSPDGELYASGSEDGTLRLWQTVVGKTYGLWKCVLPEEDSGELAKPKIGFPETTEEELEEIASENSDCIFPSAPDVKA
# B6: sp¦P12814¦ACTN1_HUMAN (protein, UniProt P12814 1-892, looked up)
# Alpha-actinin-1: MDHYDSQQTNDYMQPEEDWDRDLLLDPAWEKQQRKTFTAWCNSHLRKAGTQIENIEEDFRDGLKLMLLLEVISGERLAKPERGKMRVHKISNVNKALDFIASKGVKLVSIGAEEIVDGNVKMTLGMIWTIILRFAIQDISVEETSAKEGLLLWCQRKTAPYKNVNIQNFHISWKDGLGFCALIHRHRPELIDYGKLRKDDPLTNLNTAFDVAEKYLDIPKMLDAEDIVGTARPDEKAIMTYVSSFYHAFSGAQKAETAANRICKVLAVNQENEQLMEDYEKLASDLLEWIRRTIPWLENRVPENTMHAMQQKLEDFRDYRRLHKPPKVQEKCQLEINFNTLQTKLRLSNRPAFMPSEGRMVSDINNAWGCLEQVEKGYEEWLLNEIRRLERLDHLAEKFRQKASIHEAWTDGKEAMLRQKDYETATLSEIKALLKKHEAFESDLAAHQDRVEQIAAIAQELNELDYYDSPSVNARCQKICDQWDNLGALTQKRREALERTEKLLETIDQLYLEYAKRAAPFNNWMEGAMEDLQDTFIVHTIEEIQGLTTAHEQFKATLPDADKERLAILGIHNEVSKIVQTYHVNMAGTNPYTTITPQEINGKWDHVRQLVPRRDQALTEEHARQQHNERLRKQFGAQANVIGPWIQTKMEEIGRISIEMHGTLEDQLSHLRQYEKSIVNYKPKIDQLEGDHQLIQEALIFDNKHTNYTMEHIRVGWEQLLTTIARTINEVENQILTRDAKGISQEQMNEFRASFNHFDRDHSGTLGPEEFKACLISLGYDIGNDPQGEAEFARIMSIVDPNRLGVVTFQAFIDFMSRETADTDTADQVMASFKILAGDKNYITMDELRRELPPDQAEYCIARMAPYTGPDSVPGALDYMSFSTALYGESDL
# B7: sp¦P41218¦MNDA_HUMAN (protein, UniProt P41218 1-407, looked up)
# Myeloid cell nuclear …: MVNEYKKILLLKGFELMDDYHFTSIKSLLAYDLGLTTKMQEEYNRIKITDLMEKKFQGVACLDKLIELAKDMPSLKNLVNNLRKEKSKVAKKIKTQEKAPVKKINQEEVGLAAPAPTARNKLTSEARGRIPVAQKRKTPNKEKTEAKRNKVSQEQSKPPGPSGASTSAAVDHPPLPQTSSSTPSNTSFTPNQETQAQRQVDARRNVPQNDPVTVVVLKATAPFKYESPENGKSTMFHATVASKTQYFHVKVFDINLKEKFVRKKVITISDYSECKGVMEIKEASSVSDFNQNFEVPNRIIEIANKTPKISQLYKQASGTMVYGLFMLQKKSVHKKNTIYEIQDNTGSMDVVGSGKWHNIKCEKGDKLRLFCLQLRTVDRKLKLVCGSHSFIKVIKAKKNKEGPMNVN
# B8: Serine protease 57 (protein, UniProt Q6UWY2 32-283, looked up)
# Serine protease 57: AQIIGGHEVTPHSRPYMASVRFGGQHHCGGFLLRARWVVSAAHCFSHRDLRTGLVVLGAHVLSTAEPTQQVFGIDALTTHPDYHPMTHANDICLLRLNGSAVLGPAVGLLRPPGRRARPPTAGTRCRVAGWGFVSDFEELPPGLMEAKVRVLDPDVCNSSWKGHLTLTMLCTRSGDSHRRGFCSADSGGPLVCRNRAHGLVSFSGLWCGDPKTPDVYTQVSAFVAWIWDVVRRSSPQPGPLPGTTRPPGEAA
# B9: sp¦P50502¦F10A1_HUMAN (protein, UniProt P50502 1-369, looked up)
# Hsc70-interacting protein: MDPRKVNELRAFVKMCKQDPSVLHTEEMRFLREWVESMGGKVPPATQKAKSEENTKEEKPDSKKVEEDLKADEPSSEESDLEIDKEGVIEPDTDAPQEMGDENAEITEEMMDQANDKKVAAIEALNDGELQKAIDLFTDAIKLNPRLAILYAKRASVFVKLQKPNAAIRDCDRAIEINPDSAQPYKWRGKAHRLLGHWEEAAHDLALACKLDYDEDASAMLKEVQPRAQKIAEHRRKYERKREEREIKERIERVKKAREEHERAQREEEARRQSGAQYGSFPGGFPGGMPGNFPGGMPGMGGGMPGMAGMPGLNEILSDPEVLAAMQDPEVMVAFQDVAQNPANMSKYQSNPKVMNLISKLSAKFGGQA
# Tested on: human HL60 cells
# Test: SWATH-MS proteomics, differential protein representation, akirin2 KO vs WT HL60 cells
# Format: cell-based
# Details: Over-represented in KO; KO vs WT HL60 cells
# Method: Total proteins were extracted from WT and akirin2 KO HL60 cells using the AllPrep DNA/RNA/Protein Mini Kit (Qiagen) and protein concentration was determined using the BCA Protein Assay with BSA (Sigma–Aldrich) as standard. Protein extracts (150 µg per sample, n=3 biological replicates) from each WT and KO cells were trypsin digested using the FASP Protein Digestion Kit (Expedeon Ltd., Abcam, Cambridge, U.K.) and sequencing grade trypsin (Promega, Madison, WI, U.S.A.) following manufacturer’s recommendations. The resulting peptides were finally desalted on to OMIX Pipette tips C18 (Agilent Technologies, Santa Clara, CA, U.S.A.), dried down and stored at −20 °C until mass spectrometry analysis. […] Three micrograms of each protein digest from the three biological replicates of WT and akirin2 KO HL60 cells were used for the generation of the reference spectral ion library as part of the SWATH-MS analysis.
# Peptides were eluted in a 120-min gradient from 5 to 30% solvent B in solvent A followed by 15-min gradient from 30 to 60% solvent B in solvent A (solvent A: 0.1% formic acid in water, solvent B: 0.1% formic acid in acetonitrile) and directly injected into the mass spectrometer for analysis. For IDA experiments, the mass spectrometer was set to scanning full spectra (350–1400 m/z) using 250 ms accumulation time per spectrum, followed by up to 50 MS/MS scans (100–1500 m/z). Candidate ions with a charge state between +2 and +5 counts per second above a minimum threshold of 100 were isolated for fragmentation. One MS/MS spectrum was collected for 100 ms, before adding those precursor ions to the exclusion list for 15 s (mass spectrometer operated by Analyst TF 1.6, AB Sciex). Dynamic background subtraction was turned off. MS/MS analyses were recorded in high-sensitivity mode with rolling collision energy on and a collision energy spread of 5. For SWATH quantitative analysis, six independent samples (three replicates from WT and akirin2 KO HL60 cells, 5 µg each) were subjected to the cyclic DIA of mass spectra using the SWATH variable windows calculator (V 1.0, AB Sciex) and the SWATH acquisition method editor (AB Sciex), similar to established methods. […] For these experiments, a 50-ms survey scan (350–1400 m/z) was acquired at the beginning of each cycle, and SWATH–MS/MS spectra were collected from 100–1500 m/z for 70 ms at high-sensitivity mode, resulting in a cycle time of 3.6 s. Collision energy for each window was determined according to the calculation for a charge +2 ion-centered upon the window with a collision energy spread of 15. To create a spectral library of all the detectable peptides in the samples, the IDA MS raw files were combined and subjected to database search in unison using ProteinPilot software v. 5.0.1 (AB Sciex) with the Paragon algorithm. […] The detected protein threshold was set at 0.05. An independent false discovery rate (FDR) analysis, using the target–decoy approach provided by Protein Pilot (AB Sciex; https://sciex.com/products/software/proteinpilot-software), was used to assess the quality of identifications. Positive identifications were considered when identified proteins reached 1% of global FDR. […] Global normalization was performed according to the Total Area Sums (TAS) of all detected proteins in the samples. […] Heatmaps were prepared using the Heatmapper (http://www.heatmapper.ca/expression/) with average linkage and Euclidean distance measurement method.
Molecule,Fold Change,Log (Fold Change)
B1,1.293,0.1116
B2,1.292,0.1114
B3,1.2886,0.1101
B4,1.286,0.1092
B5,1.284,0.1086
B6,1.274,0.1053
B7,1.264,0.1017

# Same assay, conditions: SWATH-MS, akirin2 KO vs WT HL60 cells; over-represented in KO
Molecule,Fold Change,Log (Fold Change)
B8,3.338,0.5235

# Same assay, conditions: akirin2 KO vs WT HL60 cells; sheet "Over-represented in KO"
Molecule,Fold Change,Log (Fold Change)
B9,1.2518,0.09753
